The values below come from PMC12650144 (2025).

The chains are these.
B1: α1s II–III loop C region peptide (residues 720–765) [not stated] / DHPR β1a subunit, full length [mouse] (parent complex)
chain 1: LKVDEFESNVNEVKDPYPSADFPGDDEEDEPEIPVSPRPRPLAELQ
chain 2: not shown

Variants of B1 are the subject of this assay. As to the kind of experiment: intrinsic fluorescence binding (fluorescence quenching at 340 nm); read at the last titration point, 9 µM peptide; parent: 0.66; read off a plot.
In the case of chain 1 P16A, chain 1 P18A, chain 1 P23A, chain 1 P31A, chain 1 P34A, chain 1 P37A, chain 1 P39A, chain 1 P41A, the response was roughly 0.93.
